Experimental data reported in patent US20080249043.

Assays:
[1] = target: His-tagged PLS3 (wild-type phospholipid scramblase 3) (UniProt Q9NRY6)
His-tagged PLS3(T21A) = His-tagged PLS3(T21A) (UniProt Q9NRY6)
[2] = target: first 50-aa fragment of PLS3, His-tagged (UniProt Q9NRY6)

Sequence of His-tagged PLS3(T21A) (Q9NRY6 other isoform, or with tags, fused parts or gaps T21A): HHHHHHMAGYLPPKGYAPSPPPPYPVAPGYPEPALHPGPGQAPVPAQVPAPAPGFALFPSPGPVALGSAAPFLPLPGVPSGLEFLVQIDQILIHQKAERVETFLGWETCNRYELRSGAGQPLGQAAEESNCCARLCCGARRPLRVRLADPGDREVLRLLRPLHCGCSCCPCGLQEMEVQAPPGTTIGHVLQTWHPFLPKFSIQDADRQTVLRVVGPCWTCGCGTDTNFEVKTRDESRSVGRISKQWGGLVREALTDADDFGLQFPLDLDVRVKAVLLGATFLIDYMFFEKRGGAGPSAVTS

Recombinant human PKC-δ enzyme (Calbiochem)
in vitro phosphorylation with [γ-32P]ATP, autoradiography [1]: Phosphorylation was seen in both full-length PLS3 and its N-terminal fragment of PLS3
in vitro phosphorylation with [γ-32P]ATP, autoradiography (His-tagged PLS3(T21A)): mutation at Thr21 nearly eliminated PLS3 phosphorylation by PKC-δ
in vitro phosphorylation with [γ-32P]ATP, autoradiography [2]: Phosphorylation was seen in both full-length PLS3 and its N-terminal fragment of PLS3
